In the test the target is CPM-PH-PLCß2 (N-terminal PH domain of PLCβ2). Briefly: other fluorescence titration; unlabelled γ-synuclein added in steps to CPM-labelled protein in solution (2 nM CPM-PLCβ2, also 0.5 nM); increase of CPM intensity; 20 mM Hepes pH 7.2, 160 mM NaCl, 1 mM DTT.

Experimental findings from paper PMC3414502 are described below.

Chain of CPM-PH-PLCß2 (N-terminal PH domain of PLCβ2) (Q00722 whole entry, the tested form may be a part): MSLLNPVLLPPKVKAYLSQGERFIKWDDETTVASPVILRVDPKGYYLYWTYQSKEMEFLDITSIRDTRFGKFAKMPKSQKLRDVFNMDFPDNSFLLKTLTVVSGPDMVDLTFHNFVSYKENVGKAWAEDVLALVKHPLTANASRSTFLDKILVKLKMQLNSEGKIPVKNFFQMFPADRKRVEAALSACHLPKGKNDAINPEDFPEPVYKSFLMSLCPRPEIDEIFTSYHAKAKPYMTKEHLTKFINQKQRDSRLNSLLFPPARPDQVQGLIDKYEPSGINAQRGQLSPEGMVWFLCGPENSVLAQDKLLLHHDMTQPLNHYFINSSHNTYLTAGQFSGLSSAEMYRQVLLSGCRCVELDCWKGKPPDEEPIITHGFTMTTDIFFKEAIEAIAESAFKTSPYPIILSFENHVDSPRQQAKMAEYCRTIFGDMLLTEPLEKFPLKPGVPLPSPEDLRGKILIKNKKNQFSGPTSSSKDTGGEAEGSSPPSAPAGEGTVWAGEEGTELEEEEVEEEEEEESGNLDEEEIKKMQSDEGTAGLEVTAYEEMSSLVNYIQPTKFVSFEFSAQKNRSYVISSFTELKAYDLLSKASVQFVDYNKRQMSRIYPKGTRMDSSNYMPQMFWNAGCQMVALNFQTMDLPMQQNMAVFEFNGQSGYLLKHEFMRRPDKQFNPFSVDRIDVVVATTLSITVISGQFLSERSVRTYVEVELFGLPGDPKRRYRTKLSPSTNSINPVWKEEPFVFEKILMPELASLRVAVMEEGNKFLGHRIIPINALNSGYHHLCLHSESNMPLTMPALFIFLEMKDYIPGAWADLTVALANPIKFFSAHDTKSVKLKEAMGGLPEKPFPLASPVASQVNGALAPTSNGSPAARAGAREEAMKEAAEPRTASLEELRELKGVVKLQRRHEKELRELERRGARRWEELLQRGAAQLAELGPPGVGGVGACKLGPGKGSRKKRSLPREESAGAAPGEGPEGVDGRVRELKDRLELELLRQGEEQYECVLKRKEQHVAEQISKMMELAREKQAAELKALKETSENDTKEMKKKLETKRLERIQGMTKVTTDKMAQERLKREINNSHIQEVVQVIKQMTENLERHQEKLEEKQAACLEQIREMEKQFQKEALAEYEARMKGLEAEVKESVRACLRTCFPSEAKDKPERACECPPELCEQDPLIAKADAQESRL
Chain of Human γ-synuclein (O76070 whole entry): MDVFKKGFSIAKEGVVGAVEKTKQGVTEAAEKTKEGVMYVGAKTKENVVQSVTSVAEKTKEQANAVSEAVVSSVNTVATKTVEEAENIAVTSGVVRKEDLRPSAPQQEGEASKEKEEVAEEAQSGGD

Regarding “Human γ-synuclein (from UniProt O76070 1-127) (natural protein)”, the fold weaker affinity than for full length CPM-PLCβ2 is over 50 fold.
